Common to all, as to assay: SPR
One test addresses LH3 Y114A mutant (human, UniProt O60568 25-738, Y114A).
The next test deals with LH3 W75A mutant (human, UniProt O60568 25-738, W75A).
In test [1] the target is T1, human lysyl hydroxylase 3 (LH3/PLOD3), wild type (human, UniProt O60568 25-738, N-linked glycosylations at Asn63 and Asn548).
T1 chain: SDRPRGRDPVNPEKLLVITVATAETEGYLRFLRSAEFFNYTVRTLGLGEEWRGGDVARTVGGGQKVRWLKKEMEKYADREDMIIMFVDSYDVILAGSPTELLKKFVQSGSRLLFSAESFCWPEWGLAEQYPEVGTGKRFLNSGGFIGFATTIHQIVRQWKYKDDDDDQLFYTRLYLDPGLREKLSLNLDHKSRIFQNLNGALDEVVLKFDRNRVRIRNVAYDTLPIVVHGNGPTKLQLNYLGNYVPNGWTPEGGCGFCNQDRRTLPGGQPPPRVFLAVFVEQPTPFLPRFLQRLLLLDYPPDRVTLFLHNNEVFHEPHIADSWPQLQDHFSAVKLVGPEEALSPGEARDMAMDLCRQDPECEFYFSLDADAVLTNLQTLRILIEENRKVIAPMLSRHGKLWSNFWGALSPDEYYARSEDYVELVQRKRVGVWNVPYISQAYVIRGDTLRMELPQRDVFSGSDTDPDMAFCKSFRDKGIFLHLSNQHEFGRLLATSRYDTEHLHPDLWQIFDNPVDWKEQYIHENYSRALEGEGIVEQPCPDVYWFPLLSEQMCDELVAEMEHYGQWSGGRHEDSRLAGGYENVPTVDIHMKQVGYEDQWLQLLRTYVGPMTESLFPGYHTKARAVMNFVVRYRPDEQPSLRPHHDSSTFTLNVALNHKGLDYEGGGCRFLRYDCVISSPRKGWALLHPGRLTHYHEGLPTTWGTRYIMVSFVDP

LH3 Y114A mutant, sequence (O60568 25-738 Y114A): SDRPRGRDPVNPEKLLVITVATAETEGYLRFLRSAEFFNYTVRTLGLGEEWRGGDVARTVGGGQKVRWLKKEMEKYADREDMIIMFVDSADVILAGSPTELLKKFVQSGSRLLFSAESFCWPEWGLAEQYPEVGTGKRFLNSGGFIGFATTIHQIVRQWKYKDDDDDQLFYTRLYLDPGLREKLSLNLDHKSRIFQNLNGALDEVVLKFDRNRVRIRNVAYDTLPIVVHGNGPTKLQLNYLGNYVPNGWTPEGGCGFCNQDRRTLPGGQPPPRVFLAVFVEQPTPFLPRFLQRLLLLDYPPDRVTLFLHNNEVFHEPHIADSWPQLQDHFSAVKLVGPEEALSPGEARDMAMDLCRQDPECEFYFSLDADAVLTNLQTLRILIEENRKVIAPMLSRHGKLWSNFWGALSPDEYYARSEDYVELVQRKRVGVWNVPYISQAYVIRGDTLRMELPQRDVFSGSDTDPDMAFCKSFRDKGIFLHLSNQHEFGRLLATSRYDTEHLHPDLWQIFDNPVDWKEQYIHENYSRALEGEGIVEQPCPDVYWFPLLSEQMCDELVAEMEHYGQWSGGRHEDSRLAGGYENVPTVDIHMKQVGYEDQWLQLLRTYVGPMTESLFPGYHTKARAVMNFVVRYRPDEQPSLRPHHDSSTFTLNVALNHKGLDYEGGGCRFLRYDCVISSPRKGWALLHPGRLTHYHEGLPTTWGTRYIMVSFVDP
LH3 W75A mutant, sequence (O60568 25-738 W75A): as the sequence (O60568 25-738 Y114A) above, with W51A, A90Y counted along it

On to ARGIKGIRGFS, for which the Kd was 6.3 mM with LH3 Y114A mutant, 4.7 mM with LH3 W75A mutant and 4.4 mM in test [1]. Regarding IKGIKGIKG, in test [1], the Kd turned out to be 6.7 mM. In turn, GIKGIKGIKGIK came in with a Kd in test [1] of 2.4 mM.

The Kd is a measure of binding affinity in units of concentration.

The record behind these values is publication PMC6082870 (2018).
